{"source": "paper PMC11024299", "about": "“Probing the active site of Class 3 L-asparaginase by mutagenesis. I. Tinkering with the zinc coordination site of ReAV” (Frontiers in Chemistry, 2024)", "molecules": {"B1": {"name": "ReAV H139A (enzyme, Rhizobium etli)", "chain": "MTPSEDFVVTDRGGIVENSHRVHAAVVDAKGRLLYALGNPTRMTLARSAAKPAQALAILETEGVAGYGFDDADIALMCASHSSEDRHIARTRAMLSKIKAEEADLRCGGHPSLSEMVNRSWIKQDFIPTAVCSNCSGKAVGMLAGARAIGAGTDGYHLPDHPMQGRVKRTVAELCDLDAGDVEWGTDGCNLPTPAFPLDRLGRIYAKLASAADGSDAGEGQSTRCAALAHIFRAMARHPEMVAGEGRYCTMLMRAFDGALVGKLGADASYAIGVRASDATRQLGTDGALGISVKIEDGNLEMLYAVVTELLERLGIGSPDVRSQLASFHHPQRVNTMGVTTGGVSFPFKLRGSKSNVDDPRLAAVAR", "notes": "Homodimer in the crystal (two dimers per asymmetric unit); also called H139A mutant; Rhizobium etli Class 3 L-asparaginase ReAV H139A mutein; source: E. coli BL21 Gold, purified (HisTrap, TEV digestion, Superdex 200)"}, "B2": {"name": "ReAV C189A (enzyme, Rhizobium etli)", "chain": "MTPSEDFVVTDRGGIVENSHRVHAAVVDAKGRLLYALGNPTRMTLARSAAKPAQALAILETEGVAGYGFDDADIALMCASHSSEDRHIARTRAMLSKIKAEEADLRCGGHPSLSEMVNRSWIKQDFIPTAVCSNCSGKHVGMLAGARAIGAGTDGYHLPDHPMQGRVKRTVAELCDLDAGDVEWGTDGANLPTPAFPLDRLGRIYAKLASAADGSDAGEGQSTRCAALAHIFRAMARHPEMVAGEGRYCTMLMRAFDGALVGKLGADASYAIGVRASDATRQLGTDGALGISVKIEDGNLEMLYAVVTELLERLGIGSPDVRSQLASFHHPQRVNTMGVTTGGVSFPFKLRGSKSNVDDPRLAAVAR", "notes": "Homodimer in the crystal (one dimer per asymmetric unit); also called C189A mutant; Rhizobium etli Class 3 L-asparaginase ReAV C189A mutein; source: E. coli BL21 Gold, purified (HisTrap, TEV digestion, Superdex 200)"}, "B3": {"name": "ReAV C135A (enzyme, Rhizobium etli)", "chain": "MTPSEDFVVTDRGGIVENSHRVHAAVVDAKGRLLYALGNPTRMTLARSAAKPAQALAILETEGVAGYGFDDADIALMCASHSSEDRHIARTRAMLSKIKAEEADLRCGGHPSLSEMVNRSWIKQDFIPTAVCSNASGKHVGMLAGARAIGAGTDGYHLPDHPMQGRVKRTVAELCDLDAGDVEWGTDGCNLPTPAFPLDRLGRIYAKLASAADGSDAGEGQSTRCAALAHIFRAMARHPEMVAGEGRYCTMLMRAFDGALVGKLGADASYAIGVRASDATRQLGTDGALGISVKIEDGNLEMLYAVVTELLERLGIGSPDVRSQLASFHHPQRVNTMGVTTGGVSFPFKLRGSKSNVDDPRLAAVAR", "notes": "Homodimer in the crystal (one dimer per asymmetric unit); also called C135A mutant; Rhizobium etli Class 3 L-asparaginase ReAV C135A mutein; source: E. coli BL21 Gold, purified (HisTrap, TEV digestion, Superdex 200)"}, "B4": {"name": "ReAV K138A (enzyme, Rhizobium etli)", "chain": "MTPSEDFVVTDRGGIVENSHRVHAAVVDAKGRLLYALGNPTRMTLARSAAKPAQALAILETEGVAGYGFDDADIALMCASHSSEDRHIARTRAMLSKIKAEEADLRCGGHPSLSEMVNRSWIKQDFIPTAVCSNCSGAHVGMLAGARAIGAGTDGYHLPDHPMQGRVKRTVAELCDLDAGDVEWGTDGCNLPTPAFPLDRLGRIYAKLASAADGSDAGEGQSTRCAALAHIFRAMARHPEMVAGEGRYCTMLMRAFDGALVGKLGADASYAIGVRASDATRQLGTDGALGISVKIEDGNLEMLYAVVTELLERLGIGSPDVRSQLASFHHPQRVNTMGVTTGGVSFPFKLRGSKSNVDDPRLAAVAR", "notes": "Homodimer in the crystal (two dimers per asymmetric unit); also called K138A mutant; Rhizobium etli Class 3 L-asparaginase ReAV K138A mutein; source: E. coli BL21 Gold, purified (HisTrap, TEV digestion, Superdex 200)"}, "B5": {"name": "ReAV D187A (enzyme, Rhizobium etli)", "chain": "MTPSEDFVVTDRGGIVENSHRVHAAVVDAKGRLLYALGNPTRMTLARSAAKPAQALAILETEGVAGYGFDDADIALMCASHSSEDRHIARTRAMLSKIKAEEADLRCGGHPSLSEMVNRSWIKQDFIPTAVCSNCSGKHVGMLAGARAIGAGTDGYHLPDHPMQGRVKRTVAELCDLDAGDVEWGTAGCNLPTPAFPLDRLGRIYAKLASAADGSDAGEGQSTRCAALAHIFRAMARHPEMVAGEGRYCTMLMRAFDGALVGKLGADASYAIGVRASDATRQLGTDGALGISVKIEDGNLEMLYAVVTELLERLGIGSPDVRSQLASFHHPQRVNTMGVTTGGVSFPFKLRGSKSNVDDPRLAAVAR", "notes": "Homodimer in the crystal (two dimers per asymmetric unit); also called D187A mutant; Rhizobium etli Class 3 L-asparaginase ReAV D187A mutein; source: E. coli BL21 Gold, purified (HisTrap, TEV digestion, Superdex 200)"}}, "key": {"ReAV": {"target": "T1, ReAV (Rhizobium etli, UniProt Q2K0Z2)", "T1 construct": "gene ansA; recombinant from plasmid pET151-D-ReAV in E. coli BL21 Gold (DE3); His-tag cut with TEV protease; homodimer, Zn site C135/K138/C189", "T1 sequence (Q2K0Z2 entry or part of it)": "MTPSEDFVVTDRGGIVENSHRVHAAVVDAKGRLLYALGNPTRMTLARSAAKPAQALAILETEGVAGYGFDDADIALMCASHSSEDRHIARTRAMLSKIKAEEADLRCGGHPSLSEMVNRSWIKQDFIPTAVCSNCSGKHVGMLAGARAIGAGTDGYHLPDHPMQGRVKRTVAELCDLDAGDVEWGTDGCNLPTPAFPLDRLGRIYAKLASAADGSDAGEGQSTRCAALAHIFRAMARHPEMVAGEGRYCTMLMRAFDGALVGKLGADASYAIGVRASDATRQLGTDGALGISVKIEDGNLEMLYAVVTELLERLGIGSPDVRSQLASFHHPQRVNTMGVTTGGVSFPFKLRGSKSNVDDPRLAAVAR", "experiment": "multiple injection isothermal titration calorimetry (ITC-MIM)", "type": "biochemical", "conditions": "10 mM Tris-HCl pH 9.0, 37 °C, no added Zn2+; WT values cited to the same group's earlier paper (Sliwiak et al., 2024); cited from earlier work", "text": "(§1) multiple injection isothermal titration calorimetry (ITC-MIM) on ReAV"}, "[1]": {"substrate": "NC(=O)C[C@H](N)C(=O)O", "experiment": "multiple injection isothermal titration calorimetry (ITC-MIM)", "type": "biochemical, Rhizobium etli", "conditions": "10 mM Tris-HCl pH 9.0, 37 °C, no added Zn2+", "text": "as §1"}, "[2]": {"target": "the molecule itself", "experiment": "crystal structure; vapor diffusion crystals grown at 19°C, protein supplemented with 0.5%-1% DDM; data at 100 K; molecular replacement with WT ReAV (PDB 7os5); homodimer(s) in the asymmetric unit"}}, "data": [{"molecule": "NC(=O)C[C@H](N)C(=O)O", "note": "[L-asparagine]", "values": [{"measurement": "Km", "setting": "ReAV", "result": "2700 ± 100", "unit": "µM"}]}, {"molecule": "B1", "values": [{"measurement": "Km", "setting": "[1]", "result": "5600 ± 200", "unit": "µM"}, {"measurement": "kcat", "setting": "[1]", "result": "445 ± 20", "unit": "s⁻¹"}, {"measurement": "kcat/Km", "setting": "[1]", "result": "80000 ± 1000", "unit": "M⁻¹ s⁻¹"}, {"measurement": "binding result", "setting": "[2]", "result": "binds"}]}, {"molecule": "B2", "values": [{"measurement": "binding result", "setting": "[2]", "result": "binds"}]}, {"molecule": "B3", "values": [{"measurement": "binding result", "setting": "[2]", "result": "binds"}]}, {"molecule": "B4", "values": [{"measurement": "binding result", "setting": "[2]", "result": "binds"}]}, {"molecule": "B5", "values": [{"measurement": "binding result", "setting": "[2]", "result": "binds"}]}]}
